Data as given in the nanobody polyreactivity screen of Harvey et al. (2022).

Test: yeast display, Sf9 membrane polyspecificity reagent, FACS + sequencing; frameworks hold sequencing errors
Outline: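 A nanobody's polyreactivity label depends on the gate it was sorted from. Yeast display cells were stained with 10% biotinylated, detergent-solubilized Sf9 membrane reagent for 1 hour at 4 °C, enriched on streptavidin microbeads and sorted by FACS. The low and high (top ~1%) gates were set on anti-HA fluorescence for expression and streptavidin fluorescence for reagent binding.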
With “QVQLVESGGGLVQAGGILRLSCAASGSTFGYNAMGWYRQAPGKERELVAAIRFSGGSTFYADSVKGRFTISRDNAKNTVYLQMNSLKPEDTAVYNCAAGSAYYSQRYFAYGYDSWGQGTQVTVSS” the “polyreactivity (PSR sort gate)” value was “low polyreactivity”. For “QVQLVESGGGLVQAGGILRLSCAASGSTFVGYAMGWNRQAPGKERELVAAISRTGASTYYADSVKGRFTISRDNAKNTVFLQMNSLKPEDTEVYYCAYYYSIYDYWGQGTLVTVSS”, the “polyreactivity (PSR sort gate)” value was “high polyreactivity”. In the case of “QVQLVESGGGLVQAGGILRLSCAASGSTFVTYTMGWYRQAPGKERELVATITTSGGSTYYADSVKGRFTISRDNAKNTVYLQMNSLKPEDTAVYYCAADWDPGYYVQYGYDYWGQGTQVTVSS”, the “polyreactivity (PSR sort gate)” value is reported as “low polyreactivity”. In the case of “QVQLVESGGGLVQAGGILRLSCAASGSTFYIYAMGWYRQAPGKERELVAAISTTDGTTYYADSVKGRFTISRDNAKNTVYLQMNSLKPEDTAVYYWAAEWFGSVQPAYDYWGQGTQVTVSS”, the “polyreactivity (PSR sort gate)” value is reported as “high polyreactivity”. In the case of “QVQLVESGGGLVQAGGILRLSCAASGSTFYYYAMGWYRQAPGKERELVAAISSSGGTTYYADSVKGRLTISRDNAKNTVYLQMNSLKAEVTAVYYCAAQRYPSSLYQRFYYWGQGTQVTVSS”, the “polyreactivity (PSR sort gate)” value is reported as “high polyreactivity”. In the case of “QVQLVESGGGLVQAGGILRLSCAASGSTLGKNAMGWYRQAPGKERELVAAISYSGGSTYYADSVKGRFTISRDNAKNTVYLQMNSLKPEDTAVYYCAAQRRYHYWGQGTQVTVSS”, the “polyreactivity (PSR sort gate)” value is reported as “low polyreactivity”. For “QVQLVESGGGLVQAGGILRLSCAASGYTFWDYAMGWYRQAPGKEREFVAGISFSDGGTYYADSVKVRFTISRDNAKNTVYLQMNSLKPEDTAVYYCAVPQDSGYGVSEHYNWGQGTQVTVSS”, the “polyreactivity (PSR sort gate)” value was “low polyreactivity”. In the case of “QVQLVESGGGLVQAGGILRLSCAAYGSIFPHNAMGWYRQAPGKERELVASITSRGGITYYADSVKGRFTISRDNAKNTGYLQMNSLIPEDTAVYYCAGDLYIYPYDYWGQGTQVTVSS”, the “polyreactivity (PSR sort gate)” value is reported as “low polyreactivity”. With “QVQLVESGGGLVQAGGILRLSCAPSGRIFKYYGMGWYRQAPGKERELVAAIYRGSSTNYAHSVKGRFTISRDNAKNTVYLQMNSLKPEDTAVYYCAKVGWSRRYYYWGQGTQVTVSS” the “polyreactivity (PSR sort gate)” value was “high polyreactivity”. For “QVQLVESGGGLVQAGGILRLSCPASGSTLDRYVMGWYRQAPGKERELVAVISQSGGSTYYADSVKGRFTISRDNAKNTVYLQINSLKPEDTAVYYCAAKRYSFAYRQYDYWGQGTQVTVSS”, the “polyreactivity (PSR sort gate)” value was “high polyreactivity”. In the case of “QVQLVESGGGLVQAGGILRLSSAASGSTFTLNAMGWYRQEPGKERELVADITSGGGGTYYADSVKGRFTISRDNAKNTVYLQMNSLKPEDTAVYYCAADDFHSLLGYWYGLFDFWGQGTQVTVSS”, the “polyreactivity (PSR sort gate)” value is reported as “low polyreactivity”. For “QVQLVESGGGLVQAGGILRVSCAASGRIFRFYAMGWYRQAPGKERELVADISRRGGSTYYADSVKGRFTISRDNAKNTVYLQMNSLKPEDTAVYYCNARWYRTGSTYHDDYWGQGTQVTVSS”, the “polyreactivity (PSR sort gate)” value was “high polyreactivity”. With “QVQLVESGGGLVQAGGILSLSCAASGRIFPDNTMGWYRQAPGKQRELVAVITYSGGSTYYADSVKGRFTISRDNAKNTVYLQMNSLNPEDTAVYYCAARDFYIWFAEVDYWGQGTLVTVSS” the “polyreactivity (PSR sort gate)” value was “low polyreactivity”. For “QVQLVESGGGLVQAGGILSLSCAASGRTFCYYTMGWYRQAPGKERELVAAISSGGRTNYADSVKGRFTNSRDNAKITVYLQMISLKPEDTAVYYGATSLYYKYVERDYWGHGTQVTVSS”, the “polyreactivity (PSR sort gate)” value was “high polyreactivity”. In the case of “QVQLVESGGGLVQAGGNLRLSCAASGFIFTRYAMGWYRQAPGKERELVAAISTSGDRTYYADSVKGRFTISRDNAKNTVYLQMNSLKPEDTAVYYCAVEASRAGAWYEYWGQGTQVTVSS”, the “polyreactivity (PSR sort gate)” value is reported as “high polyreactivity”. For “QVQLVESGGGLVQAGGNLRLSCAASGRTFRFNAMGWYRQAPGKERELVAAISFRGGSTYYADSVKGRFTISRDNAKNTVYLQMTSLKPEDTAVYYCAADNPYQGRKFDYWGQGTQVSVSS”, the “polyreactivity (PSR sort gate)” value was “high polyreactivity”. For “QVQLVESGGGLVQAGGNLRLSCAASGSIFAWYVMGWYRQPPGKERELVAGIDTSGGSTFYADSVKGRFTISRDNAKNTVYLQMNSLKPEDTAVYYCAADTWYRGPWEFDYWGQGTQVTVSS”, the “polyreactivity (PSR sort gate)” value was “low polyreactivity”. With “QVQLVESGGGLVQAGGPLRLSCAASGFTFGYYTMGWYRQAPGKERELVAAISWRGGRTYYADSVKGRFTISRDNAKNTVYLQMNSLKPEETAVYYCAAEYTYGWTYRPFVYWGQGTQVTVSS” the “polyreactivity (PSR sort gate)” value was “high polyreactivity”. For “QVQLVESGGGLVQAGGPLRVSCAASGIIFDYNAMGWYRQAPGKERELVAAITSTDNTNYADSVKGRFTISRDNAKNTVYLQKNCLKPEDTAVYYCAACSYSRYHYSLYFDFDYWGQGTQVTVSS”, the “polyreactivity (PSR sort gate)” value was “low polyreactivity”. With “QVQLVESGGGLVQAGGRHRLSCAASGSTFSYNAMGWYRQAPGKERELVATISNTDSTNYADSVKGRFTISRDNAKNTVYLQMNSLKPEDTAVYYCAVVSARFDYEYWGQGTQVTVSS” the “polyreactivity (PSR sort gate)” value was “low polyreactivity”. In the case of “QVQLVESGGGLVQAGGRHRLSCAASGYIFKYYAMGWYRQAPGKERELVAAISRSGDSTYYADSVKGRFTISRDHAKNTVYLQMNSLKPEDTAVYYCNARYWHGPTGSDYWGQGTQVTVSS”, the “polyreactivity (PSR sort gate)” value is reported as “high polyreactivity”. In the case of “QVQLVESGGGLVQAGGRLLLSCAASGRTFYRNAMGWYRQAPGKEREFVPSIRTSGGSTYYADSVKGRFTISRDNAKNTVYLQMNSLKPEDTAVYYCKKYRQQGWEFDYWGQGTQVTVSS”, the “polyreactivity (PSR sort gate)” value is reported as “high polyreactivity”. With “QVQLVESGGGLVQAGGRLLLSSAASGSTFIWNGMGWYRQAPGKERELVAAITSSSTYYADSVKGRFTISRDNAKNTVYLQMNSLKPEDTAVYYCAATFIQVVVNVQLYDYDYWGQGTQVTVSS” the “polyreactivity (PSR sort gate)” value was “low polyreactivity”. For “QVQLVESGGGLVQAGGRLRFSCAASGSNFPVYAMGWYRHAPGKERELVADITYTTGSTYYADSVKGRFTISRDNAKNTVYLQMHSLKPEDTGVYYCNARDYTWYLHLGYSTLYWGQGTQVTVSS”, the “polyreactivity (PSR sort gate)” value was “low polyreactivity”. For “QVQLVESGGGLVQAGGRLRISCAASGFSFFSNAMGWYRQAPGKERELVAVIDRATSTYYADSVKGRFTISRDNAKNTVYLQMNSLKPEDTAVYYCNADGEEVYDFNYFLSFKGDYWGQGTQVTVSS”, the “polyreactivity (PSR sort gate)” value was “low polyreactivity”. With “QVQLVESGGGLVQAGGRLRISCAASGRIFPYNAMGWYRQAPGKERELVAAISFGGGRTYYADSVKGRFTISRDNAKNTVYLQMNSMKPEDTAVYYCNTASPQDIVFRVFYGGDYWGQGTQVTVSS” the “polyreactivity (PSR sort gate)” value was “low polyreactivity”. In the case of “QVQLVESGGGLVQAGGRLRLICAASGFNFKFYALGWYRQAPGKERELVAAITASSGRTYYADSVKGRFTISRDNAKNTVFLQMNSLKPEDTAVYYCAALGITYGRYDYWGQGTQVTVSS”, the “polyreactivity (PSR sort gate)” value is reported as “high polyreactivity”. For “QVQLVESGGGLVQAGGRLRLSCAASASTFSDYAMGWYRQAPGKERELVATITSTGDTNYADSVKGRFTISRDNAKNTVYFQMYSLKPVDTAVYYCAAQHKKYGKRGLWNNFGYWGQGTQVTVSS”, the “polyreactivity (PSR sort gate)” value was “low polyreactivity”. For “QVQLVESGGGLVQAGGRLRLSCAASGFIFDTKAMGWYRKAPGKERELGARISSSAGSTYYADSVKGLFTISRDNAKNTVYLQMNSLKPEDTAVYYCNRTYRLPVYKVDYWGQGTQVTVSS”, the “polyreactivity (PSR sort gate)” value was “low polyreactivity”. With “QVQLVESGGGLVQAGGRLRLSCAASGFIFGAYAMGWYRQAPGKERELVAAINWSGGSTYYADSVKGRFTISRDNAKNTVYLQMNSLKPEDTAVYYCNARYNGFYAYPRHDYWGQGTQVTVSS” the “polyreactivity (PSR sort gate)” value was “low polyreactivity”. For “QVQLVESGGGLVQAGGRLRLSCAASGFIFGTYTMGWYRQAPGKERELVAAITNGGSTYADSVKGRFTISRDNAKNTVYLQMISLKPEDTAVYYCAADYRGHSGAWYDYWGLGTQVTVSS”, the “polyreactivity (PSR sort gate)” value was “low polyreactivity”. For “QVQLVESGGGLVQAGGRLRLSCAASGFIFTPYTMGWYRQSPGTERELVAAITDGSSTYYADSVNGRFTISRDNAKNTVNLQMNSLKPEDTAVYYCNADGKQPYISWLYDYWGQGTQVTVSS”, the “polyreactivity (PSR sort gate)” value was “low polyreactivity”. For “QVQLVESGGGLVQAGGRLRLSCAASGFIYENAMGWYRQAPGKERELVAAISYSGGCTYYADSVKGRFTISRDNAKNTVYLQMNSLKPEDTAVYVCAADTQGYDYDYWGQGTQVTVSS”, the “polyreactivity (PSR sort gate)” value was “low polyreactivity”. With “QVQLVESGGGLVQAGGRLRLSCAASGFNFRYYAMGWYRQAPGKERELVAASSRSGGGTYYADSVKGRFTISRDTAQNTVYLQMNSLTPEDTAVYYCAADPSLGRGYDYWGQGTQVTVSS” the “polyreactivity (PSR sort gate)” value was “high polyreactivity”. In the case of “QVQLVESGGGLVQAGGRLRLSCAASGFTFGYYTMGWYRQAPGKESELVASISRTGGRTYADSVKGRFTISRDNAKNTVFLQMNSLKPEDTAVYYCNRKKYFSYPSDYGYGYWGQGTQVTVSS”, the “polyreactivity (PSR sort gate)” value is reported as “high polyreactivity”. For “QVQLVESGGGLVQAGGRLRLSCAASGFTFRYYALGWYRQAPGKERELVAAISAGGGSTYYADSVKGRFTISRDNAKNNVYLQMHSQKPDDTAVYYCASAGARPGYDYWGQCTQVTVSS”, the “polyreactivity (PSR sort gate)” value was “high polyreactivity”. In the case of “QVQLVESGGGLVQAGGRLRLSCAASGFTFSGYGMGWSRQAPGKERELVAAISNSGGRTYADSVKGRFTISRDTAQKTVYLQMNSLKPEDTAVYSCAKKPGGFSQASRVDYDYWGQGTQVTVSS”, the “polyreactivity (PSR sort gate)” value is reported as “low polyreactivity”. For “QVQLVESGGGLVQAGGRLRLSCAASGFTFYRYPMGWYRQAPGTERELVAAITWSGGSTYYADSVKGRFTISRDTAMNTVYLQMNSLKPEDTAVYYCAADIYDGGFDYWGQGTQVTVSS”, the “polyreactivity (PSR sort gate)” value was “low polyreactivity”. For “QVQLVESGGGLVQAGGRLRLSCAASGFTFYVNAMGWYRQAPGKERELVAAIRGSGGSTYYADSVKGRFTISRVNAKITVYLQMNSLKPEDTAVYYCAKGKARSAQGSSRAYNYWGQGTQVTVSS”, the “polyreactivity (PSR sort gate)” value was “high polyreactivity”. With “QVQLVESGGGLVQAGGRLRLSCAASGFTLDRYAMGWYRQAPGKERELVAAITQSGVSTYYADSVKGLFTISRDNAKNTVYLQKNSLKPEETAVYYCNALLRRTYYRYTWGYGYWGQGTQVTVSS” the “polyreactivity (PSR sort gate)” value was “high polyreactivity”. For “QVQLVESGGGLVQAGGRLRLSCAASGIIFSFYTMGWYIQAPGKERELVAAITWSGGSTYYADSVKGRFTISRDNAKNTVYFQMNSLKPEDTSVYYCNARNPWSKRSQGYSWGQGTQVTVSS”, the “polyreactivity (PSR sort gate)” value was “low polyreactivity”. For “QVQLVESGGGLVQAGGRLRLSCAASGIIRGSYAMGWYRQAPGKERELVAGINSGGGTYYADSVKGRFTISRDNAKNTVYLQMNSLKPEDTAVYYCNARKSSGLSSYDWYSWEYGYWGQGTQVTVSS”, the “polyreactivity (PSR sort gate)” value was “low polyreactivity”. For “QVQLVESGGGLVQAGGRLRLSCAASGIISRFYAMGWYRQAPGKERELVARISGSGGSTYYADSVKGRFTISRDNAKTTVYLQMNSLKPEDTAVYYFNAKSYRYFGVRRFNYWGQGTQVTVSS”, the “polyreactivity (PSR sort gate)” value was “high polyreactivity”.
